The results in this text go back to patent US20250215073A1 (TOKUSHIMA UNIVERSITY, published 2025).

The target in one experiment is T1, human c-KIT (human, UniProt P10721 26-976).
T1 construct: whole, on cells; Endogenous c-KIT of the GIST cell line GIST-T1 and the small cell lung cancer line SY; also called c-KIT on GIST-T1 cells; c-KIT on SCLC cell line SY
As to the kind of experiment: flow cytometry on fixed GIST-T1 cells, 10 µg antibody. As for the experimental part:
GIST-T1 cells were collected with trypsin (on ice), and 1×10⁶ cells were dispensed into 1.5 mL tubes. The cells were washed three times with 1 mL of PBS-BSA-Azide. To each tube, 1 mL of 4% paraformaldehyde cooled to 4° C. was added and mixed by gentle pipetting on ice. The tubes were returned to room temperature and left to stand for 15 minutes (the subsequent process was carried out at room temperature). The cells were washed three times with 1 mL of PBS-BSA-Azide.
To GIST-T1 cell pellets, 100 μL of each antibody solution prepared with PBS-BSA-Azide was added and mixed. The mixtures were prepared to contain 10 μg of the IR700-labeled mouse anti-c-KIT (12A8) antibody, 10 μg of the IR700-labeled humanized anti-c-KIT (12A8) IgG1 antibody, and 10 μg of the IR700-labeled humanized anti-c-KIT (12A8) Fab antibody, respectively. Each mixture was covered with aluminum foil in the dark and allowed to react at room temperature (from 20° C. to 25° C.) for 60 minutes (the subsequent process was carried out in the dark as much as possible). Washing was performed three times by adding 1 mL of PBS-BSA-Azide. After adding 500 μL of PBS-BSA-Azide and mixing, each mixture was passed through a filter (42-μm nylon mesh, AS ONE Corporation). Measurement was performed using FACS (CytoFLEX (Beckman Coulter)) with excitation at 638 nm and 712/25BP.
In general terms: In flow cytometry, cells or beads pass a laser one at a time.

Experiment [1] addresses T2, FLT4-Fc (fusion product of the extracellular region of the human FLT4 protein and mouse antibody Fc) (human; mouse, UniProt P35916 25-775).
T2 construct: extracellular domain; Negative control antigen in the EIA
T2 sequence (looked up): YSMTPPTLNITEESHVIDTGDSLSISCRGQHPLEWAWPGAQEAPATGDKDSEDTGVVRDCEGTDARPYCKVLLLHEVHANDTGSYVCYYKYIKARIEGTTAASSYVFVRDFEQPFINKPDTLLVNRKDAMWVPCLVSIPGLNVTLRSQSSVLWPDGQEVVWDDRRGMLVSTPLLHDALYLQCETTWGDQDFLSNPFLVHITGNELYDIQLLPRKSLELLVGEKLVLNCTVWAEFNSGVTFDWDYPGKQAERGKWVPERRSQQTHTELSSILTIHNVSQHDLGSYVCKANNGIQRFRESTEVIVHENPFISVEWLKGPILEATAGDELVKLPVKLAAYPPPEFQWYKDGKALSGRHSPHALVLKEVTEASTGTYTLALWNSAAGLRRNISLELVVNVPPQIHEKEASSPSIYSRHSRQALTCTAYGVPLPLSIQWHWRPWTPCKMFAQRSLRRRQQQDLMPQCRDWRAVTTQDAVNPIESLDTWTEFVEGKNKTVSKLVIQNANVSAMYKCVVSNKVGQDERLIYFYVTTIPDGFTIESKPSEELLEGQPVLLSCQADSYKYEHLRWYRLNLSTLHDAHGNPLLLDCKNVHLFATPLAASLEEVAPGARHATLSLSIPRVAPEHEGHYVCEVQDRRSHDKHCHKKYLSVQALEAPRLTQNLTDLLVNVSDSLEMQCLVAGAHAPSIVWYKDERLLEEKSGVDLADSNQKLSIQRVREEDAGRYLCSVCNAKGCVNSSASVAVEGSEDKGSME
As to the kind of experiment: EIA, antigen solid-phased in 96-well plate, HRP anti-human Kappa detection. The source says:
Since the antigen recognition site of the anti-c-KIT (12A8) antibody is the extracellular region of the human c-KIT protein, a fusion protein (c-KIT-Fc) of the c-KIT extracellular region and the Fc region of the mouse antibody was used as the antigen for EIA. A fusion product of the extracellular region of the human FLT4 protein and mouse antibody Fc (FLT4-Fc) was used as a negative control.
Each above was solid-phased in a 96-well plate, blocked with a BSA solution, washed, sufficiently dried, and then stored in a refrigerator until use. The humanized anti-c-KIT (12A8) IgG1 antibody-producing clone culture supernatant was diluted 2-fold to 64-fold and added to an antigen solid-phase plate and a negative control plate so as to perform a primary reaction. The same was performed for the humanized anti-c-KIT (12A8) Fab antibody. The primary reaction was carried out for one hour at room temperature, and then each well was washed with phosphate-buffered saline (PBS). The HRP-labeled anti-human Kappa chain antibody was added as a secondary antibody and reacted for 30 minutes at room temperature. Thereafter, each well was washed with PBS, and the substrate OPD (Sigma-Aldrich) was added to develop a color. IN sulfuric acid was added to stop the reaction, and the absorbance at 490 nm was measured.

T1 sequence (P10721 26-976): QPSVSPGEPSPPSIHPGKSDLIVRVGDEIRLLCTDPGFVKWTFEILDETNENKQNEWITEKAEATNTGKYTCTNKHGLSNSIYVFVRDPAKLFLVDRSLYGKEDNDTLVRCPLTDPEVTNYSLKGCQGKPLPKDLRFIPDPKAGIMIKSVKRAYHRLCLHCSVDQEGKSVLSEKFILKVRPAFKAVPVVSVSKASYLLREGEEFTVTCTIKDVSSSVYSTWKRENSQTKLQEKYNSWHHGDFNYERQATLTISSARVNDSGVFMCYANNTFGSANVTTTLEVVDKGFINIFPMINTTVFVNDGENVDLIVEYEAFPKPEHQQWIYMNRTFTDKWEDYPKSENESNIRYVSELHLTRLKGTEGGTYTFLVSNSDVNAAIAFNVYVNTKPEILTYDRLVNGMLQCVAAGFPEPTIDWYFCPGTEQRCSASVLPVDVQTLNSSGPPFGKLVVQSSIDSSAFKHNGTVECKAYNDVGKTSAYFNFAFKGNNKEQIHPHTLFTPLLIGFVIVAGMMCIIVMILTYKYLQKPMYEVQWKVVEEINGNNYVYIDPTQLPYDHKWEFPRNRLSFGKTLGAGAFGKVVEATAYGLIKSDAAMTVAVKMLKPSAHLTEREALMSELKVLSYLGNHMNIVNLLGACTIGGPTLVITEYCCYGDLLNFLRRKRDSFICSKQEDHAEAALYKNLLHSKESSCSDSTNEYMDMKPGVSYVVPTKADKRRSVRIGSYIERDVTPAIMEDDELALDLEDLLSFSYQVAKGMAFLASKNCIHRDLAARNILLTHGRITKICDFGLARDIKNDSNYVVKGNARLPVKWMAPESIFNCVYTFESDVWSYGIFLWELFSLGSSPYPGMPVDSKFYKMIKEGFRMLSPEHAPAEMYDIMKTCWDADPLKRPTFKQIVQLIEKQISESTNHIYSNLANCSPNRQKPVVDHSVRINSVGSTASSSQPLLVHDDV

B1: IR700-labeled mouse anti-c-KIT (12A8) antibody (whole IgG) (antibody, V domains shown)
VH: EVQLQQSGPELVKTGTSVKISCKASGYSFSNYYMHWVKQSHGKSLEWIGYISCFNGATTYNQKFRGKATFTVDTSSSTTYMQFNSLTSEDSAVYFCARRTAGAMDYWGQGTSVTVSS
VL: EVVVTQTPLSLPVSFGDQVSISCRSSQSLANSYGNTYLSWYLHKPGQSPQLLIYGISNRFSGVPDRFSGSGSGTEFTLEISTIKPEDLGMYYCLQGTHQPYTFGGGTKLEIKR
modifications: IR700 (IRDye700DX) conjugated, residues not stated
notes: Mouse IgG1 12A8 conjugated with IRDye700DX; also called IR700-12A8 (whole IgG); IR700-12A8 Whole IgG
B1: the binding result in the experiment with human c-KIT is recorded as “binds”.

B2: IR700-labeled humanized anti-c-KIT (12A8) IgG1 antibody (antibody, V domains shown)
VH: QVQLVQSGAEVKKPGASVKVSCKASGYSFSNYYMHWVRQAPGQRLEWMGYISCFNGATTYNQKFRGRVTITRDTSASTAYMELSSLRSEDTAVYYCARRTAGAMDYWGQGTLVTVSS
VL: DIVMTQTPLSLSVTPGQPASISCRSSQSLANSYGNTYLSWYLQKPGQSPQLLIYGISNRFSGVPDRFSGSGSGTDFTLKISRVEAEDVGVYYCLQGTHQPYTFGGGTKVEIKR
modifications: IR700 (IRDye700DX) conjugated, residues not stated
notes: The antibody was purified on protein A before labeling; also called Humanized Whole IgG
As for B2, in the experiment with human c-KIT, the binding result is on record as “binds”.

B3: humanized anti-c-KIT (12A8) IgG1 antibody (antibody, V domains shown)
VH: QVQLVQSGAEVKKPGASVKVSCKASGYSFSNYYMHWVRQAPGQRLEWMGYISCFNGATTYNQKFRGRVTITRDTSASTAYMELSSLRSEDTAVYYCARRTAGAMDYWGQGTLVTVSS
VL: DIVMTQTPLSLSVTPGQPASISCRSSQSLANSYGNTYLSWYLQKPGQSPQLLIYGISNRFSGVPDRFSGSGSGTDFTLKISRVEAEDVGVYYCLQGTHQPYTFGGGTKVEIKR
notes: Human IgG1 / kappa, tested in the EIA as CHO-K1 culture supernatant; also called humanized c-KIT (12A8) IgG1; humanized anti-c-KIT (12A8) antibody (whole IgG)
Consider B3, for which, in experiment [1], the binding result is given as “no binding”.

B4: humanized anti-c-KIT (12A8) Fab antibody (Fab, V domains shown)
VH: QVQLVQSGAEVKKPGASVKVSCKASGYSFSNYYMHWVRQAPGQRLEWMGYISCFNGATTYNQKFRGRVTITRDTSASTAYMELSSLRSEDTAVYYCARRTAGAMDYWGQGTLVTVSS
VL: DIVMTQTPLSLSVTPGQPASISCRSSQSLANSYGNTYLSWYLQKPGQSPQLLIYGISNRFSGVPDRFSGSGSGTDFTLKISRVEAEDVGVYYCLQGTHQPYTFGGGTKVEIKR
notes: Recombinant Fab, tested in the EIA as CHO-K1 culture supernatant; also called Fab fragment of the humanized anti-c-KIT (12A8) antibody
On to B4, for which the binding result in experiment [1] is given as “no binding”.

B5: IR700-labeled humanized anti-c-KIT (12A8) Fab antibody (Fab, V domains shown)
VH: QVQLVQSGAEVKKPGASVKVSCKASGYSFSNYYMHWVRQAPGQRLEWMGYISCFNGATTYNQKFRGRVTITRDTSASTAYMELSSLRSEDTAVYYCARRTAGAMDYWGQGTLVTVSS
VL: DIVMTQTPLSLSVTPGQPASISCRSSQSLANSYGNTYLSWYLQKPGQSPQLLIYGISNRFSGVPDRFSGSGSGTDFTLKISRVEAEDVGVYYCLQGTHQPYTFGGGTKVEIKR
modifications: IR700 (IRDye700DX) conjugated, residues not stated
notes: The Fab was purified on Kan Cap G before labeling; also called Humanized Fab
For B5, the binding result in the experiment with human c-KIT is recorded as “binds”.
